Assay results as given in IntAct's records for PubMed 20890306.

B1: FAS-associated death domain protein (Homo sapiens), Q13158 (parent)
chain: MDPFLVLLHSVSSSLSSSELTELKFLCLGRVGKRKLERVQSGLDLFSMLLEQNDLEPGHTELLRELLASLRRHDLLRRVDDFEAGAAAGAAPGEEDLCAAFNVICDNVGKDWRRLARQLKVSDTKIDSIEDRYPRNLTERVRESLRIWKNTEKENATVAHLVGALRSCQMNLVADLVQEVQQARDLQNRSGAMSPMSWNSDASTSEAS

Variants of: B1
Conditions: with plk1_human PLK1, P53350
plk1_human PLK1, P53350, sequence (P53350 whole entry): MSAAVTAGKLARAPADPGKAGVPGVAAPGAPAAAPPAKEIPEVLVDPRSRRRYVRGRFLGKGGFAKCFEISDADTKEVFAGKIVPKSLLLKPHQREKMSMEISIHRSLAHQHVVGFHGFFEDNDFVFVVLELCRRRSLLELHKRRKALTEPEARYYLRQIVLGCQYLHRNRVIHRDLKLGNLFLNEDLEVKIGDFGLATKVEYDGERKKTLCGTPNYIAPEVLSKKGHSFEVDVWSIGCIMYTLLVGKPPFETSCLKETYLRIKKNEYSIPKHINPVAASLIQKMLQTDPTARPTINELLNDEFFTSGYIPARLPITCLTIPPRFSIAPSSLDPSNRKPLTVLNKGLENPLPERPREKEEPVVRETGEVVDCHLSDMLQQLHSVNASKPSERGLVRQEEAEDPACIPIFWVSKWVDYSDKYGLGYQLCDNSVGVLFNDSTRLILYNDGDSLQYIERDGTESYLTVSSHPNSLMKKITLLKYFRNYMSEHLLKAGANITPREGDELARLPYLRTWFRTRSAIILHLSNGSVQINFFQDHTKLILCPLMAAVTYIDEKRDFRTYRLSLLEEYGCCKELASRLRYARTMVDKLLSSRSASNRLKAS

Variant	effect of a mutation on the interaction
MDPFLVLLHSVSSSLSSSELTELKFLCLGRVGKRKLERVQSGLDLFSMLLEQNDLEPGHTELLRELLASLRRHDLLRRVDDFEAGAAAGAAPGEEDLCAAFNVICDNVGKDWRRLARQLKVSDTKIDSIEDRYPRNLTERVRESLRIWKNTEKENATVAHLVGALRSCQMNLVADLVQEVQQARDLQNRSGAMAPMSWNSDASTSEAS [S194A]	disrupting interaction
